The record followed here is patent publication US20260001928A1 (CORTERIA PHARMACEUTICALS, priority 2022, published 2026).

One test addresses T1, CRF1R receptor (UniProt P34998 24-415, limits assumed).
T1 sequence (looked up): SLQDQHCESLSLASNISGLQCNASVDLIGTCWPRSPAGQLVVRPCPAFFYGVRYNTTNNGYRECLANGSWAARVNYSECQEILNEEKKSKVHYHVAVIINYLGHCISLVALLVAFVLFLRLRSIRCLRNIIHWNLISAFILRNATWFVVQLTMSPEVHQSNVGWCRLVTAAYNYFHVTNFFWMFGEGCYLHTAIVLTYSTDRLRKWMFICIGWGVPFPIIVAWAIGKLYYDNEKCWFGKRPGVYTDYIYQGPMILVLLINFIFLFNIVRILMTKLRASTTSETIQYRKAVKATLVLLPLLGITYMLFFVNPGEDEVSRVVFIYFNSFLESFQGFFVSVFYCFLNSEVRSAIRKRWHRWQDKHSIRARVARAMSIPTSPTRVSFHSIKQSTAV
The experiment in a line: cell-based or functional assay.

The target of test [1] is human corticotropin-releasing factor 2a (CRF2a receptor) (human), Q13324. The test is described as follows: cell-based or functional assay.

*1 amine or outer side, *2 acyl side, *3 side chain or, on linkers, in order; H or OH if unused. Side-chain parts run from the residue outwards. [ ]: non-standard residue; d: D form. The star is where a group is joined. C18 diacid = O=C(O)CCCCCCCCCCCCCCCCC(=O)*; γGlu = O=C(O)[C@H](CCC(=O)[*:2])N[*:1]; αMeL = CC(C)C[C@](C)(N)C(=O)O; AEEA = NCCOCCOCC(=O)O; Aib = CC(C)(N)C(=O)O

human corticotropin-releasing factor 2a (CRF2a receptor) (human), Q13324, sequence (Q13324 20-411): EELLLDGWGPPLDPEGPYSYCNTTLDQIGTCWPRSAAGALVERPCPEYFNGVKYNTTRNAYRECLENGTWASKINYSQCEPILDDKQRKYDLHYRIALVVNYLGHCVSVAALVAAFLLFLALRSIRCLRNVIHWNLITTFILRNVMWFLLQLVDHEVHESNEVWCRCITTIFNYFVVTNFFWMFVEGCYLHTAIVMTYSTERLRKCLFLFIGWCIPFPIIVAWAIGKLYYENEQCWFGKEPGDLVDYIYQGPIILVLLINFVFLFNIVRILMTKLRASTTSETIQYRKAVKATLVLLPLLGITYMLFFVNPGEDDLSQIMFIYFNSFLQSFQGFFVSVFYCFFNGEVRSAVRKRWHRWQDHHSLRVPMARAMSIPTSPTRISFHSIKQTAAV

B1: SEQ ID NO 101 (peptide)
peptide: Ac-VLSLD[dV]PIKLK([AEEA-AEEA-γGlu-C18 diacid])KILLEQEKQKKQREQAETNAQILAQV-NH2
SMILES: CC[C@H](C)[C@H](NC(=O)[C@H](CCC(N)=O)NC(=O)[C@H](C)NC(=O)[C@H](CC(N)=O)NC(=O)[C@@H](NC(=O)[C@H](CCC(=O)O)NC(=O)[C@H](C)NC(=O)[C@H](CCC(N)=O)NC(=O)[C@H](CCC(=O)O)NC(=O)[C@H](CCCNC(=N)N)NC(=O)[C@H](CCC(N)=O)NC(=O)[C@H](CCCCN)NC(=O)[C@H](CCCCN)NC(=O)[C@H](CCC(N)=O)NC(=O)[C@H](CCCCN)NC(=O)[C@H](CCC(=O)O)NC(=O)[C@H](CCC(N)=O)NC(=O)[C@H](CCC(=O)O)NC(=O)[C@H](CC(C)C)NC(=O)[C@H](CC(C)C)NC(=O)[C@@H](NC(=O)[C@H](CCCCN)NC(=O)[C@H](CCCCNC(=O)COCCOCCNC(=O)COCCOCCNC(=O)CC[C@H](NC(=O)CCCCCCCCCCCCCCCCC(=O)O)C(=O)O)NC(=O)[C@H](CC(C)C)NC(=O)[C@H](CCCCN)NC(=O)[C@@H](NC(=O)[C@@H]1CCCN1C(=O)[C@H](NC(=O)[C@H](CC(=O)O)NC(=O)[C@H](CC(C)C)NC(=O)[C@H](CO)NC(=O)[C@H](CC(C)C)NC(=O)[C@@H](NC(C)=O)C(C)C)C(C)C)[C@@H](C)CC)[C@@H](C)CC)[C@@H](C)O)C(=O)N[C@@H](CC(C)C)C(=O)N[C@@H](C)C(=O)N[C@@H](CCC(N)=O)C(=O)N[C@H](C(N)=O)C(C)C
In the case of B1, the “Emax (% I)” value in the test with CRF1R receptor stood at 0%. Also, in test [1], the EC50 [nM] (cAMP) was found to be 1.74 nM.

B2: SEQ ID NO 99 (peptide)
peptide: Ac-VLSLD[dV]PIKLK([AEEA-AEEA-γGlu-C18 diacid])KILLEQEKQKKQREQAETN[Aib]QILAQV-NH2
SMILES: CC[C@H](C)[C@H](NC(=O)[C@H](CCC(N)=O)NC(=O)C(C)(C)NC(=O)[C@H](CC(N)=O)NC(=O)[C@@H](NC(=O)[C@H](CCC(=O)O)NC(=O)[C@H](C)NC(=O)[C@H](CCC(N)=O)NC(=O)[C@H](CCC(=O)O)NC(=O)[C@H](CCCNC(=N)N)NC(=O)[C@H](CCC(N)=O)NC(=O)[C@H](CCCCN)NC(=O)[C@H](CCCCN)NC(=O)[C@H](CCC(N)=O)NC(=O)[C@H](CCCCN)NC(=O)[C@H](CCC(=O)O)NC(=O)[C@H](CCC(N)=O)NC(=O)[C@H](CCC(=O)O)NC(=O)[C@H](CC(C)C)NC(=O)[C@H](CC(C)C)NC(=O)[C@@H](NC(=O)[C@H](CCCCN)NC(=O)[C@H](CCCCNC(=O)COCCOCCNC(=O)COCCOCCNC(=O)CC[C@H](NC(=O)CCCCCCCCCCCCCCCCC(=O)O)C(=O)O)NC(=O)[C@H](CC(C)C)NC(=O)[C@H](CCCCN)NC(=O)[C@@H](NC(=O)[C@@H]1CCCN1C(=O)[C@H](NC(=O)[C@H](CC(=O)O)NC(=O)[C@H](CC(C)C)NC(=O)[C@H](CO)NC(=O)[C@H](CC(C)C)NC(=O)[C@@H](NC(C)=O)C(C)C)C(C)C)[C@@H](C)CC)[C@@H](C)CC)[C@@H](C)O)C(=O)N[C@@H](CC(C)C)C(=O)N[C@@H](C)C(=O)N[C@@H](CCC(N)=O)C(=O)N[C@H](C(N)=O)C(C)C
For the molecule B2, the “Emax (% I)” value with CRF1R receptor was found to be 0%. The same molecule returned an EC50 [nM] (cAMP) in test [1] of 6.07 nM.

B3: SEQ ID NO 112 (peptide)
peptide: Ac-IVLSLD[dV]PIK[αMeL]K([AEEA-AEEA-γGlu-C18 diacid])KILLEQEKQKKQREQAETNAQILAQV-NH2
SMILES: CC[C@H](C)[C@H](NC(C)=O)C(=O)N[C@H](C(=O)N[C@@H](CC(C)C)C(=O)N[C@@H](CO)C(=O)N[C@@H](CC(C)C)C(=O)N[C@@H](CC(=O)O)C(=O)N[C@@H](C(=O)N1CCC[C@H]1C(=O)N[C@H](C(=O)N[C@@H](CCCCN)C(=O)N[C@@](C)(CC(C)C)C(=O)N[C@@H](CCCCNC(=O)COCCOCCNC(=O)COCCOCCNC(=O)CC[C@H](NC(=O)CCCCCCCCCCCCCCCCC(=O)O)C(=O)O)C(=O)N[C@@H](CCCCN)C(=O)N[C@H](C(=O)N[C@@H](CC(C)C)C(=O)N[C@@H](CC(C)C)C(=O)N[C@@H](CCC(=O)O)C(=O)N[C@@H](CCC(N)=O)C(=O)N[C@@H](CCC(=O)O)C(=O)N[C@@H](CCCCN)C(=O)N[C@@H](CCC(N)=O)C(=O)N[C@@H](CCCCN)C(=O)N[C@@H](CCCCN)C(=O)N[C@@H](CCC(N)=O)C(=O)N[C@@H](CCCNC(=N)N)C(=O)N[C@@H](CCC(=O)O)C(=O)N[C@@H](CCC(N)=O)C(=O)N[C@@H](C)C(=O)N[C@@H](CCC(=O)O)C(=O)N[C@H](C(=O)N[C@@H](CC(N)=O)C(=O)N[C@@H](C)C(=O)N[C@@H](CCC(N)=O)C(=O)N[C@H](C(=O)N[C@@H](CC(C)C)C(=O)N[C@@H](C)C(=O)N[C@@H](CCC(N)=O)C(=O)N[C@H](C(N)=O)C(C)C)[C@@H](C)CC)[C@@H](C)O)[C@@H](C)CC)[C@@H](C)CC)C(C)C)C(C)C
Turning to B3, in the test with CRF1R receptor, the “Emax (% I)” value turned out to be 3%. Also, in test [1], the EC50 [nM] (cAMP) was 0.28 nM.

B4: SEQ ID NO 98 (peptide)
peptide: Ac-IVLSLD[dV]PIKLK([AEEA-AEEA-γGlu-C18 diacid])KILLEQEKQKKQREQAETN[Aib]QILAQV-NH2
SMILES: CC[C@H](C)[C@H](NC(C)=O)C(=O)N[C@H](C(=O)N[C@@H](CC(C)C)C(=O)N[C@@H](CO)C(=O)N[C@@H](CC(C)C)C(=O)N[C@@H](CC(=O)O)C(=O)N[C@@H](C(=O)N1CCC[C@H]1C(=O)N[C@H](C(=O)N[C@@H](CCCCN)C(=O)N[C@@H](CC(C)C)C(=O)N[C@@H](CCCCNC(=O)COCCOCCNC(=O)COCCOCCNC(=O)CC[C@H](NC(=O)CCCCCCCCCCCCCCCCC(=O)O)C(=O)O)C(=O)N[C@@H](CCCCN)C(=O)N[C@H](C(=O)N[C@@H](CC(C)C)C(=O)N[C@@H](CC(C)C)C(=O)N[C@@H](CCC(=O)O)C(=O)N[C@@H](CCC(N)=O)C(=O)N[C@@H](CCC(=O)O)C(=O)N[C@@H](CCCCN)C(=O)N[C@@H](CCC(N)=O)C(=O)N[C@@H](CCCCN)C(=O)N[C@@H](CCCCN)C(=O)N[C@@H](CCC(N)=O)C(=O)N[C@@H](CCCNC(=N)N)C(=O)N[C@@H](CCC(=O)O)C(=O)N[C@@H](CCC(N)=O)C(=O)N[C@@H](C)C(=O)N[C@@H](CCC(=O)O)C(=O)N[C@H](C(=O)N[C@@H](CC(N)=O)C(=O)NC(C)(C)C(=O)N[C@@H](CCC(N)=O)C(=O)N[C@H](C(=O)N[C@@H](CC(C)C)C(=O)N[C@@H](C)C(=O)N[C@@H](CCC(N)=O)C(=O)N[C@H](C(N)=O)C(C)C)[C@@H](C)CC)[C@@H](C)O)[C@@H](C)CC)[C@@H](C)CC)C(C)C)C(C)C
Consider B4, for which the “Emax (% I)” value with CRF1R receptor was -2%. The EC50 [nM] (cAMP) in test [1] amounted to 0.55 nM.
